Reference: patent US20250026792A1, “SELF-ASSEMBLING PEPTIDES WITH HYALURONIC ACID BINDING DOMAINS AND METHODS OF USE THEREOF” (Northwestern University, priority 2022, published 2025)
Entries after “also recorded” stand apart in the source; their conditions may differ. Where a SMILES comes first, the peptide text is derived from it. The star is where a group is joined. Biotin = O=C1N[C@H]2[C@H](CS[C@H]2CCCCC(=O)*)N1

Columns and labels:
[1] = Transmission electron microscopy (TEM) of peptide nanostructures; type: physicochemical; conditions: for TEM characterization, Sodium Cacodylate Buffer (ii): 20 mM sodium cacodylate pH 7.4, 0.5% w/v; for TEM characterization, Sodium Cacodylate Buffer (ii) / TEM characterization, Phosphate Buffered Saline (i): 30 minutes sonication, 24 hrs at 37° C.; for TEM characterization, Phosphate Buffered Saline (i): PBS pH 7.4, 0.5% w/v
Protocol: The sample and stain were filter-dried in between steps. Samples were collected 24 hours at 37° C. after 30 minutes of sonication. All TEM was performed on a Philips FEI Technai Spirit G2 electron microscope. Peptides were incubated in both PBS and SC.

[2] = Circular dichroism (CD) of peptides; type: physicochemical; conditions: 20 mM Sodium Cacodylate; for Ellipticity ratio (222 nm/208 nm) / Ellipticity 208 nm / Ellipticity 222 nm: 1.25 mg/mL; for Ellipticity 208 nm / Ellipticity 222 nm: CD data given as [θ]M×10^−3; for wavelength Minimum of CD profile: 5.0 mg/mL
Protocol: Data is presented in ellipticity ([θ]M×10^−3) as a function of spectral wavelength (λ).
Sodium cacodylate (SC), 20 mM pH 7.4, without and with 20% TFE was used to reduce phosphate related background signal and enhance detected structures. Circular dichroism (CD) data were collected in millidegrees, 0, and converted to molar ellipticity, [θ]M, and are expressed in units of deg×cm^2×dmol^−1. Scan speeds and digital integration times were 500 nm/min and 1 second, respectively. The data on the Y axis of the CD plots is [θ]M×10^−3. […] Consequently, CD signals are reported in the 190-260 nm range.

[3] = Concentration-dependent peptide binding to hyaluronic acid coating (biotin-streptavidin fluorescence); conditions: for binding to hyaluronic acid with increasing concentrations of peptide (fluorescence intensity): 0-10 mg/ml peptide, PBS pH 7.4, 37° C., HA coating 10 μg/cm^2, FIG. 3; for HA binding, overall assessment: summary and discussion statements
Protocol: Peptides were incubated 24 hours at 37° C. Coatings (10 μg/cm^2) were previously dried overnight in milli-Q water. Overall significance was assessed using analysis of variance, with Tukey's multiple comparison post-hoc analysis between 1-scrm and experimental groups where n=4.
N-termini biotinylated peptides were added to coated plates at 0, 1, 2.5, 5 and 10 mg/ml overnight at 37° C. in phosphate buffered saline (PBS), pH 7.4, after which the plates were washed three times with PBS.

[4] = tested on: extracellular matrix (ECM) components: Collagen type I, II, III and IV, elastin, hyaluronic acid and Geltrex; test: ECM specificity binding test, whole panel; conditions: 5.0 mg/ml peptide, FIG. 4
Protocol: Peptides were incubated 24 hours at 37° C. on collagens I-IV, elastin, hyaluronic acid, and Geltrex. Coatings (10 pig/cm^2) were previously dried overnight in milli-Q water. Overall significance was assessed using analysis of variance, with Tukey's multiple comparison post-hoc analysis between ECM groups where n=4.
Hyaluronic acid, collagens I, II, III, and IV, elastin, and Geltrex were coated onto 96-well black plates (medium binding affinity) at 10 μg/cm^2 and were dried in milli-Q water at room temperature. N-termini biotinylated peptides were added to coated plates at 0, 1, 2.5, 5 and 10 mg/ml overnight at 37° C. in phosphate buffered saline (PBS), pH 7.4, after which the plates were washed three times with PBS. Fluorescent streptavidin-488 (4 μg/mL) was added to each well and incubated at 37° C. temperature for 24 hours, then thoroughly washed with PBS. The plates were read with a fluorescence microplate reader for fluorescence intensity (Ex 490 nm, Em 525 nm). All data were normalized to the background fluorescence intensity of Streptavidin-488.

Compound	TEM characterization, Sodium Cacodylate Buffer (ii) [1]	Ellipticity ratio (222 nm/208 nm) [2]	Ellipticity 208 nm [2]	Ellipticity 222 nm [2]	wavelength Minimum of CD profile [2]	Ellipticity ratio (222 nm/208 nm) ([2]; 20% TFE)	Ellipticity 208 nm ([2]; 20% TFE)	Ellipticity 222 nm ([2]; 20% TFE)	wavelength Minimum of CD profile ([2]; 20% TFE)	TEM characterization, Phosphate Buffered Saline (i) [1]	binding to hyaluronic acid with increasing concentrations of peptide (fluorescence intensity) [3]	HA binding, overall assessment [3]	binding to the ECMs (for 17x-3: the ECMs other than hyaluronic acid) [4]	binding to hyaluronic acid ([3]; 10 mg/ml peptide)	peptide concentrations at which increased binding to hyaluronic acid is shown ([3]; FIG. 3) [mg/mL]	nanofiber formation in TEM, overall ([1]; both PBS and sodium cacodylate)
CC[C@H](C)[C@H](NC(=O)[C@H](CC(C)C)NC(=O)[C@H](CC(N)=O)NC(=O)[C@H](CC(C)C)NC(=O)[C@H](CCC(N)=O)NC(=O)[C@H](CC(C)C)NC(=O)[C@H](CCC(N)=O)NC(=O)[C@H](CC(C)C)NC(=O)[C@H](CCCCN)NC(=O)[C@H](CCCCN)NC(=O)[C@H](CCCCN)NC(=O)[C@H](CCCCN)NC(=O)[C@H](CCCCN)NC(=O)CCCC[C@@H]1SC[C@@H]2NC(=O)N[C@@H]21)C(=O)N[C@@H](CCCCN)C(=O)N[C@@H](CCCCN)C(=O)N[C@@H](CCCCN)C(=O)N[C@H](C(=O)N[C@@H](CCC(N)=O)C(=O)N[C@H](C(=O)N[C@@H](CO)C(=O)N[C@H](C(=O)N[C@H](C(=O)N[C@H](C(=O)N[C@H](C(=O)N[C@@H](CCCNC(=N)N)C(=O)N[C@@H](CCCNC(=N)N)C(=O)N[C@@H](Cc1c[nH]cn1)C(=O)O)C(C)C)C(C)C)C(C)C)C(C)C)C(C)C)C(C)C [Peptide 1-scrm, reference compound] (Biotin-KKKKKLQLQLNLIKKKVQVSVVVVRRH-OH)	No structure or fibrils	–	–	–	–	–	–	–	–	–	–	–	–	–	–	–
CC[C@H](C)[C@H](NC(=O)[C@H](CCCCN)NC(=O)[C@H](CCC(N)=O)NC(=O)[C@H](CCCCN)NC(=O)[C@H](CC(C)C)NC(=O)CCCC[C@@H]1SC[C@@H]2NC(=O)N[C@@H]21)C(=O)N[C@@H](CCCCN)C(=O)N[C@@H](Cc1c[nH]cn1)C(=O)N[C@H](C(=O)N[C@H](C(=O)N[C@@H](CCCCN)C(=O)N[C@@H](CC(C)C)C(=O)N[C@@H](CCCCN)C(=O)N[C@H](C(=O)N[C@H](C(=O)N[C@H](C(=O)N[C@@H](CCCCN)C(=O)N[C@@H](CC(C)C)C(=O)N[C@@H](CCCNC(=N)N)C(=O)N[C@@H](CO)C(=O)N[C@@H](CCC(N)=O)C(=O)N[C@@H](CC(C)C)C(=O)N[C@H](C(=O)N[C@@H](CCCCN)C(=O)N[C@@H](CCCNC(=N)N)C(=O)N[C@@H](CCCCN)C(=O)N[C@@H](CCC(N)=O)C(=O)N[C@@H](CC(N)=O)C(=O)O)C(C)C)C(C)C)C(C)C)C(C)C)C(C)C)C(C)C [mPEP35, reference compound] (Biotin-LKQKIKHVVKLKVVVKLRSQLVKRKQN-OH)	no fibers or structure can be observed; also recorded: No structure or fibrils	–	–	–	–	–	–	–	–	–	–	–	–	–	–	–
ASNLTKAAKSLKVRVIKKTKQKQVLKVL [2nd de novo, five B(X7)B domains]	–	0.42	−115	−48.5	224-225 nm	0.90	−371	−333	221-222 nm	Structure, but no discernible striations	–	–	–	–	–	–
LKLKSSHSIKLKVKSKQRSALVSRQKA [Peptide 6b, mPEP35 variant]	–	–	–	–	227 nm	0.87	−229	−199	224 nm	Structure with striations	–	–	–	–	–	–
TKSKIKIVVKSKAKKLRLALVKRIKI [Peptide 6f-2, modification of mPEP35]	–	0.52	−97.6	−50.6	221 nm	0.84	−306	−257	221 nm	Structure, but no discernible striations	no different than the negative reference peptide	–	–	–	–	–
TKTKIKIIVKLKSKAKLRIKLVKRHKS [Peptide 8h-2, modification of mPEP35]	No discernible structure.	0.42	−135	−57.3	224 nm	0.88	−283	−249	222-224 nm	No discernible structure.	–	proficient and specific binders	–	–	–	–
TQLRNKYTFLARARNALAVRTKQNIKS [BHP3, designed from 42 residue peptide BH-P]	–	0.79	−88.4	−70.1	226 nm	–	–	–	226 nm	form fibers with many striations that form larger fibers and the larger fibers tend to form a mesh network	increases dramatically	HA specific and robust binders	did not show significant binding	bound significantly	10	consistent nanofibers; also recorded: predominantly form fibers with striations and furthermore form a mesh network
